From patent US20250243265A1

Legend:
[1] = molecular target: K63-linked diubiquitin (Boston Biochem) (Homo sapiens (Human)) (UniProt P0CG48); test: western blot, 1 µg/mL IgG, two-fold dilutions of K63-linked diubiquitin
[2] = molecular target: endogenous K63 polyubiquitin linkages in 293T cell lysates (human) (UniProt P0CG48); test: IP in 7 M urea from LUBAC over-expressing 293T lysate (input 5075), mass spec AQUA
[3] = molecular target: endogenous K48 polyubiquitin linkages in 293T cell lysates (human) (UniProt P0CG48); test: IP in 7 M urea from LUBAC over-expressing 293T lysate (input 12420), mass spec AQUA

Substance	limit of detection in western blot [1]	polyubiquitin linkages recovered in the IP [2]	polyubiquitin linkages recovered in the IP [3]
Apu3.A8 anti-K63 IgG (antibody)	62 ng	–	–
isotype control IgG (unrelated human kappa IgG1 antibody)	–	0 pmol	1 pmol
